Test results from article PMC4729829, “BAP1/ASXL1 recruitment and activation for H2A deubiquitination” (Nature Communications, 2016).

How the values were obtained:
[1] = target: T1, full-length BAP1 (BRCA-1-associated protein 1) (human), Q92560; experiment: SEC-MALS; miniDawn detector in line with Superdex S75 10/30 (ASXL1DEU), Superose 6 10/30 (BAP1) or Superdex S200 10/30 (BAP1/ASXL1DEU); 10 mM HEPES pH 7.5, 150 mM NaCl, 0.5 mM TCEP, 4 °C; molecular weights from the refractive index signal; conditions: remark: other sources report otherwise
T1 chain: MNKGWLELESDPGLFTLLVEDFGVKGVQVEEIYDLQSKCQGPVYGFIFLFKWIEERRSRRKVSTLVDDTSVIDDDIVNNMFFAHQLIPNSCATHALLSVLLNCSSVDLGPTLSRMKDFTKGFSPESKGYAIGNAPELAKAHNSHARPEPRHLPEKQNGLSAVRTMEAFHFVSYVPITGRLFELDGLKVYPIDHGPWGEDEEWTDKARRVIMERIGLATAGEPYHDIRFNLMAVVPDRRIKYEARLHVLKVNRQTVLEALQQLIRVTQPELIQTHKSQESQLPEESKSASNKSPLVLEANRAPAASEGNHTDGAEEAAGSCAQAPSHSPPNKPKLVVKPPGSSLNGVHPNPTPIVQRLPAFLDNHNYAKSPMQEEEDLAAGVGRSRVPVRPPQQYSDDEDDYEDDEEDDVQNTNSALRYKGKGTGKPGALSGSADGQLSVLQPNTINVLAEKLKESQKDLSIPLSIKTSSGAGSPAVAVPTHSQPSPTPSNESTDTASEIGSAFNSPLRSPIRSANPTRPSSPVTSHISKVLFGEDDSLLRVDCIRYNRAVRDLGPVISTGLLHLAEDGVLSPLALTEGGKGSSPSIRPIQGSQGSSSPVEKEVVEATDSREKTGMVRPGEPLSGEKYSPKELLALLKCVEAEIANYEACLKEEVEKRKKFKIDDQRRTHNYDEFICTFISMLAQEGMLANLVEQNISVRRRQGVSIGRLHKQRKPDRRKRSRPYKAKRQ

[2] = target: T2, full-length BAP1 (BRCA-1-associated protein 1) (human, UniProt Q92560 1-729); experiment: ITC; VP-ITC at 25 °C; 25 mM HEPES pH 7.5, 150 mM NaCl, 10% glycerol, 0.5 mM TCEP; 30 μM ASXL1DEU (syringe) titrated into 13 μM BAP1 variant (cell), 10 or 5 μl injections; one-site binding model; conditions: both partners purified
T2 construct: BAP1, uniprot Q92560, full length; Vector pFastBac-NKI-his-3C-LIC; no removal of the tag is described; also called FL BAP1; WT BAP1; source: Sf9 cells, purified (Ni2+ chelating sepharose, Poros HQ anion exchange, Superose 6 SEC)
T2 sequence (looked up): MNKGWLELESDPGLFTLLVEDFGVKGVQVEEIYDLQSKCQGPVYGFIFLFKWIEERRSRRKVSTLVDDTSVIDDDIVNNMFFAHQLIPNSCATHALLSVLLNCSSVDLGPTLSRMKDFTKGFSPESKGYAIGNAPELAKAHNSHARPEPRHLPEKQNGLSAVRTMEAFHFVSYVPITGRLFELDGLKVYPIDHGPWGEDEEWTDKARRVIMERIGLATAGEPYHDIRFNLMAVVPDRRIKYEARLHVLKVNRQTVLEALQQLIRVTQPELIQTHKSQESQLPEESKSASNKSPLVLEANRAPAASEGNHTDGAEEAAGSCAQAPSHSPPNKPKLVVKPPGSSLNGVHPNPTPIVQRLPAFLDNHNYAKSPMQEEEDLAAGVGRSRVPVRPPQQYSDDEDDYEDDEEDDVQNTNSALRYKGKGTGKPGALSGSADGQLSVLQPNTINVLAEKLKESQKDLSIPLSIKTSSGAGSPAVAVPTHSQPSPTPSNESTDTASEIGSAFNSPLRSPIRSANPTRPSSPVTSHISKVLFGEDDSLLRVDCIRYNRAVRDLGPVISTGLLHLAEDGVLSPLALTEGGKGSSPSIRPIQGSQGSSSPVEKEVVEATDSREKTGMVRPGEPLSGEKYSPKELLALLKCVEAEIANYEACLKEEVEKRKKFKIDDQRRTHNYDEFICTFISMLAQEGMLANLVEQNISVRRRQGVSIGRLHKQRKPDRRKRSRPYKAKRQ

[3] = target: T3, BAP1 1-710 (lacks the C-terminal extension) (human, UniProt Q92560 1-710); experiment: as above; conditions: both partners purified
T3 construct: BAP1, uniprot Q92560, residues 1-710; Vector pFastBac-NKI-his-3C-LIC; source: Sf9 cells, purified (Ni2+ chelating sepharose, Poros HQ anion exchange, Superose 6 SEC)
T3 sequence (looked up): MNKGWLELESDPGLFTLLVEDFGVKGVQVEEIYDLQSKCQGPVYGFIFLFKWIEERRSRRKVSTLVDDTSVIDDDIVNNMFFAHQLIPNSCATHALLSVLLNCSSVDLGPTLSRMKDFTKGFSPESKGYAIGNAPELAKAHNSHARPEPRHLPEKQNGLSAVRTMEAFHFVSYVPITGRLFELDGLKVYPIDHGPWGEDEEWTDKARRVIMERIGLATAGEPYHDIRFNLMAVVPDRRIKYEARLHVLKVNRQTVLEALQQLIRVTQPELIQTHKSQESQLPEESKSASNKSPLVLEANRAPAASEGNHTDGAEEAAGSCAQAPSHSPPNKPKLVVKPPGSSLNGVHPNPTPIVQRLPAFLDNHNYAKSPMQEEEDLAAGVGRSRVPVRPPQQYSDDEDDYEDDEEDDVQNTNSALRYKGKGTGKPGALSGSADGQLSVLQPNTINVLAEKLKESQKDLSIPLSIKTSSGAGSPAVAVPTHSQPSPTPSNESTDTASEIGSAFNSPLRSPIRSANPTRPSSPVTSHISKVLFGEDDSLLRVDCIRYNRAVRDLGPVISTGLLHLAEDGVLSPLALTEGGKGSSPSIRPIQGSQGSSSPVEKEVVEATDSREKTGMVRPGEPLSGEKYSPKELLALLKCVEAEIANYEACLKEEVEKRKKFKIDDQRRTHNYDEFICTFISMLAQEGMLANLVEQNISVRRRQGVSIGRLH

[4] = target: T4, BRCA-1-associated protein 1 (BAP1), full length, wild type (human, UniProt Q92560 1-729); experiment: SEC-MALS; SEC-MALLS, miniDawn detector; Superdex S75 10/30 (ASXL1^DEU), Superose 6 10/30 (BAP1) or Superdex S200 10/30 (BAP1/ASXL1^DEU); 10 mM HEPES pH 7.5, 150 mM NaCl, 0.5 mM TCEP; 4 °C; conditions: both partners purified
T4 construct: BAP1 (BRCA-1-associated protein 1), human, UniProt Q92560, full length; Cloned into pFastBac-NKI-his-3C-LIC; In isolation it forms dimers and higher order oligomers (SEC-MALLS); also called WT BAP1; full-length BAP1; source: Sf9 cells, purified (Ni2+ chelating sepharose, Poros HQ anion exchange, Superose 6 SEC)
T4 sequence (looked up): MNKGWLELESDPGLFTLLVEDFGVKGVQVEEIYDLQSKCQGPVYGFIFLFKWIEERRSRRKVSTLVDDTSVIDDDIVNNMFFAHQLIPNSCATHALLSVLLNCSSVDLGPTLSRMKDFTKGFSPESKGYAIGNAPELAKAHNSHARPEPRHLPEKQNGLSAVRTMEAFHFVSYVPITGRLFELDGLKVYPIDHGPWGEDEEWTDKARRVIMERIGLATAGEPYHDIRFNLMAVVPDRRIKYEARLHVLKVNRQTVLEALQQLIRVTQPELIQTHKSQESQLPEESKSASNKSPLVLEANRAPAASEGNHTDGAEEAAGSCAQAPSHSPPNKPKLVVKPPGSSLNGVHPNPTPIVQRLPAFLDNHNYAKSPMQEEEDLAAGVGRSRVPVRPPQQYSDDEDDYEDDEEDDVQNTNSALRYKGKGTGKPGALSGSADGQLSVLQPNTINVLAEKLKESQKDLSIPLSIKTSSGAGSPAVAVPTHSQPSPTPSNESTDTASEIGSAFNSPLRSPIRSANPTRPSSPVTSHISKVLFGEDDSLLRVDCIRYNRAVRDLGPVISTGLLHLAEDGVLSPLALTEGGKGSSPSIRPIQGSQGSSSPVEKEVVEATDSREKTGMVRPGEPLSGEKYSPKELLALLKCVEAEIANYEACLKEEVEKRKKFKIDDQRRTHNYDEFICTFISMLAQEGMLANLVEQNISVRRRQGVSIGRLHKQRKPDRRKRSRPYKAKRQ

[5] = target: T4, BRCA-1-associated protein 1 (BAP1), …; experiment: ITC; 30 μM ASXL1^DEU in the syringe titrated (10 or 5 μl injections) into 13 μM BAP1 variant in the cell; 25 °C; 25 mM HEPES pH 7.5, 150 mM NaCl, 10% glycerol, 0.5 mM TCEP; one-site binding model; conditions: both partners purified

B1: full-length BAP1 (BRCA-1-associated protein 1), Q92560 1-729 (enzyme)
chain: MNKGWLELESDPGLFTLLVEDFGVKGVQVEEIYDLQSKCQGPVYGFIFLFKWIEERRSRRKVSTLVDDTSVIDDDIVNNMFFAHQLIPNSCATHALLSVLLNCSSVDLGPTLSRMKDFTKGFSPESKGYAIGNAPELAKAHNSHARPEPRHLPEKQNGLSAVRTMEAFHFVSYVPITGRLFELDGLKVYPIDHGPWGEDEEWTDKARRVIMERIGLATAGEPYHDIRFNLMAVVPDRRIKYEARLHVLKVNRQTVLEALQQLIRVTQPELIQTHKSQESQLPEESKSASNKSPLVLEANRAPAASEGNHTDGAEEAAGSCAQAPSHSPPNKPKLVVKPPGSSLNGVHPNPTPIVQRLPAFLDNHNYAKSPMQEEEDLAAGVGRSRVPVRPPQQYSDDEDDYEDDEEDDVQNTNSALRYKGKGTGKPGALSGSADGQLSVLQPNTINVLAEKLKESQKDLSIPLSIKTSSGAGSPAVAVPTHSQPSPTPSNESTDTASEIGSAFNSPLRSPIRSANPTRPSSPVTSHISKVLFGEDDSLLRVDCIRYNRAVRDLGPVISTGLLHLAEDGVLSPLALTEGGKGSSPSIRPIQGSQGSSSPVEKEVVEATDSREKTGMVRPGEPLSGEKYSPKELLALLKCVEAEIANYEACLKEEVEKRKKFKIDDQRRTHNYDEFICTFISMLAQEGMLANLVEQNISVRRRQGVSIGRLHKQRKPDRRKRSRPYKAKRQ
[1]
  stoichiometry N: 2

B2: ASXL1 DEUBAD domain (aa 238-390) (domain or fragment, human, UniProt Q8IXJ9 238-390, looked up)
chain: ATGQMKRNRGEEIDFETPGSILVNTNLRALINSRTFHALPSHFQQQLLFLLPEVDRQVGTDGLLRLSSSALNNEFFTHAAQSWRERLADGEFTHEMQVRIRQEMEKEKKVEQWKEKFFEDYYGQKLGLTKEESLQQNVGQEEAEIKSGLCVPG
notes: ASXL1, uniprot Q8IXJ9, DEUBAD domain, residues 238-390; Vector pET-NKI-his-3C-LIC; also called His-ASXL1DEU; source: E. coli, purified (Ni2+ chelating sepharose, Poros HQ anion exchange, Superdex 75 SEC)
[2]
  stoichiometry N: 0.37 ± 0.002
[3]
  Kd: 5 ± 0.16 nM
  stoichiometry N: 0.27 ± 0.001

B3: ASXL1 DEUBAD domain (aa 238-390) (domain or fragment, human, UniProt Q8IXJ9 238-390, looked up)
chain: ATGQMKRNRGEEIDFETPGSILVNTNLRALINSRTFHALPSHFQQQLLFLLPEVDRQVGTDGLLRLSSSALNNEFFTHAAQSWRERLADGEFTHEMQVRIRQEMEKEKKVEQWKEKFFEDYYGQKLGLTKEESLQQNVGQEEAEIKSGLCVPG
notes: ASXL1 (additional sexcombs like 1), human, UniProt Q8IXJ9, DEUBAD domain, aa 238-390; Cloned into pET-NKI-his-3C-LIC; printed as His-ASXL1^DEU; Monomeric in SEC-MALLS; also called His-ASXL1^DEU; WT ASXL1^DEU; source: E. coli, purified (Ni2+ chelating sepharose, Poros HQ anion exchange, Superdex 75 SEC)
[4]
  stoichiometry N: 2 BAP1 molecules per ASXL1^DEU molecule
[5]
  Kd: 18 nM
  stoichiometry N: 0.25 to 0.5

B4: ASXL1 DEUBAD domain triple mutant N310A/E311K/F312A (domain or fragment, human, UniProt Q8IXJ9 238-390, looked up)
chain: ATGQMKRNRGEEIDFETPGSILVNTNLRALINSRTFHALPSHFQQQLLFLLPEVDRQVGTDGLLRLSSSALNAKAFTHAAQSWRERLADGEFTHEMQVRIRQEMEKEKKVEQWKEKFFEDYYGQKLGLTKEESLQQNVGQEEAEIKSGLCVPG
notes: ASXL1, human, UniProt Q8IXJ9, DEUBAD domain, aa 238-390, with N310A, E311K and F312A; Variant of m2; also called ASXL1NEF^DEU; NEF; source: E. coli, purified (Ni2+ chelating sepharose, Poros HQ anion exchange, Superdex 75 SEC)
[5]
  Kd: 45 nM

B5: ASXL1 DEUBAD domain (aa 238-390) N310A/E311K/F312A (domain or fragment, human, UniProt Q8IXJ9 238-390, looked up)
chain: ATGQMKRNRGEEIDFETPGSILVNTNLRALINSRTFHALPSHFQQQLLFLLPEVDRQVGTDGLLRLSSSALNAKAFTHAAQSWRERLADGEFTHEMQVRIRQEMEKEKKVEQWKEKFFEDYYGQKLGLTKEESLQQNVGQEEAEIKSGLCVPG
notes: ASXL1, uniprot Q8IXJ9, DEUBAD domain, residues 238-390, triple mutant of the NEF region; Variant of Dm4; also called ASXL1NEF DEU; NEF; source: E. coli, purified (Ni2+ chelating sepharose, Poros HQ anion exchange, Superdex 75 SEC)
[2]
  Kd: 46 ± 0.14 nM
  stoichiometry N: 0.32 ± 0.003
